For assay [1], the target named is cDNA clone IMAGE:4623222 product, G9a-methylated (human). The assay is described as follows: ProtoArray, G9a array SNR minus GST array SNR.
Experimental: (§1) Briefly, a ProtoArray (Invitrogen, version 5.0) was incubated overnight with 50 μg of GST or recombinant GSTtagged G9a SET domain and the cofactor SAM.
(§2) Arrays were analyzed using GenePix Pro 6.1 software (Molecular Devices) and feature values were assigned to proteins using the array list provided by Invitrogen. We designated the following criteria for “hits”: GST array signal-to-noise ratio (SNR) less than or equal to 1.5, G9a array SNR greater than or equal to 10, and a difference between the G9a array SNR and the GST array SNR of greater than or equal to 12. Hits were individually visually validated. Proteins were removed from the list of potential substrates if irregular array features appeared to interfere with the array spots or SNR calculations.
(§3) Protein arrays bearing almost 9500 recombinant human proteins were methylated using GST-tagged recombinant G9a SET domain or GST alone as a control as shown in FIG. 4. […] Results were filtered for proteins scoring a GST array signal-to-noise ratio (SNR) less than or equal to 1.5, a G9a array SNR greater to or equal to 10, and a difference between the G9a and GST SNRs of greater than or equal to 12. Subsequent proteins were individually inspected for irregular array features.
For assay [2], the target named is LOC400500, G9a-methylated (human). The assay is described as follows: ProtoArray, G9a array SNR minus GST array SNR.
Experimental: as §1, §2, §3
Assay [3] has as its target LOC145788, G9a-methylated (human). The assay is described as follows: ProtoArray, G9a array SNR minus GST array SNR.
Experimental: as §1, §2, §3
The target of assay [4] is MGC4473, G9a-methylated (human). The assay is described as follows: ProtoArray, G9a array SNR minus GST array SNR.
Experimental: as §1, §2, §3
In assay [5] the target is CA13-carbonic anhydrase XIII (CA13) (human, UniProt Q8N1Q1 1-262). The experiment in a line: ProtoArray, GST-treated control array.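 Also: human protein microarray (about 9500 recombinant proteins) incubated overnight with GST alone plus SAM cofactor as the negative control for G9a SET domain methylation.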
Experimental: as §1, §2, §3
The target in assay [6] is T1, ZRANB1-zinc finger, RAN-binding domain containing 1 (ZRANB1) (human, UniProt Q9UGI0 1-708).
T1 sequence (looked up): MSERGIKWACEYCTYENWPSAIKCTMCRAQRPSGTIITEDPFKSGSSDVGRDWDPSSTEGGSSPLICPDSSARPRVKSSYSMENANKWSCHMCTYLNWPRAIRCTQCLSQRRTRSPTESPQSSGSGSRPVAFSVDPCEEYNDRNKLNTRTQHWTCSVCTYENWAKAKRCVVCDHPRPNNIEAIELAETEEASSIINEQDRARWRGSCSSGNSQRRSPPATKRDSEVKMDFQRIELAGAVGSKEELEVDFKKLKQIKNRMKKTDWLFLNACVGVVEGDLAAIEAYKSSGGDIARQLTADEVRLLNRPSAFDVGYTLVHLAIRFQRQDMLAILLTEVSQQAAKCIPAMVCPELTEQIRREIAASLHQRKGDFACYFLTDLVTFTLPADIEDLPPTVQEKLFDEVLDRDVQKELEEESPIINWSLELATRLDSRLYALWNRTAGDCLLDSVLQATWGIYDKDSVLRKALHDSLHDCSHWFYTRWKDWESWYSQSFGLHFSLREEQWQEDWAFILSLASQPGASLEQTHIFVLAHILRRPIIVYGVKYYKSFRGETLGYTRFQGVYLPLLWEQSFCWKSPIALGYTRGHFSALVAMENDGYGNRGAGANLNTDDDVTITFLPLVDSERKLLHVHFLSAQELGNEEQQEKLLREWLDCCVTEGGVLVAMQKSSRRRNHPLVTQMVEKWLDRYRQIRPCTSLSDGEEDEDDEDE
The assay is described as follows: ProtoArray, GST-treated control array.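 Also: human protein microarray (about 9500 recombinant proteins) incubated overnight with GST alone plus SAM cofactor as the negative control for G9a SET domain methylation.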
Experimental: as §1, §2, §3

Assay [7] concerns the target T2, FKBP14-FK506 binding protein 14, 22 kDa (FKBP14) (human, UniProt Q9NWM8 20-211).
T2 sequence (looked up): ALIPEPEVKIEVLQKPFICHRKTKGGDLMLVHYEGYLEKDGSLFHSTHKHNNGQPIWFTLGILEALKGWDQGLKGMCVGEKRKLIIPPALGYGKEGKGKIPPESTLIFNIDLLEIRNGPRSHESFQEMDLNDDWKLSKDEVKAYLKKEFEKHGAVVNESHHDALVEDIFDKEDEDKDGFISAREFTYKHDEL
The assay is described as follows: ProtoArray, GST-treated control array.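 Also: human protein microarray (about 9500 recombinant proteins) incubated overnight with GST alone plus SAM cofactor as the negative control for G9a SET domain methylation.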
Experimental: as §1, §2, §3

The target of assay [8] is T3, SMYD5-SMYD family member 5 (SMYD5) (human, UniProt Q6GMV2 1-418).
T3 sequence (looked up): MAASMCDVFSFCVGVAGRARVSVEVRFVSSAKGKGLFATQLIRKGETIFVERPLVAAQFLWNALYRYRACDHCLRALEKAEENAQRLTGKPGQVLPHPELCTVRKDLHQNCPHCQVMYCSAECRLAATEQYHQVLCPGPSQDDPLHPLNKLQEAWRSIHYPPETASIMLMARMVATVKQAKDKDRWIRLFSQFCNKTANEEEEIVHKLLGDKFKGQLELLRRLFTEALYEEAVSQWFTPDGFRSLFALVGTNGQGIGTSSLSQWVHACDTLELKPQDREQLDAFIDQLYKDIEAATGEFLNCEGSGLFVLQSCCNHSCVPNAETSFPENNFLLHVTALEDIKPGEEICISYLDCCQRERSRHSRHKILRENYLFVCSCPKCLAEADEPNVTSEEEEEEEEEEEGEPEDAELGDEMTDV
The assay is described as follows: ProtoArray, GST-treated control array.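 Also: human protein microarray (about 9500 recombinant proteins) incubated overnight with GST alone plus SAM cofactor as the negative control for G9a SET domain methylation.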
Experimental: as §1, §2, §3

Assay [9] concerns the target T4, CNTD1-Cyclin N-terminal domain-containing protein 1 (human, UniProt Q8N815 1-330).
T4 sequence: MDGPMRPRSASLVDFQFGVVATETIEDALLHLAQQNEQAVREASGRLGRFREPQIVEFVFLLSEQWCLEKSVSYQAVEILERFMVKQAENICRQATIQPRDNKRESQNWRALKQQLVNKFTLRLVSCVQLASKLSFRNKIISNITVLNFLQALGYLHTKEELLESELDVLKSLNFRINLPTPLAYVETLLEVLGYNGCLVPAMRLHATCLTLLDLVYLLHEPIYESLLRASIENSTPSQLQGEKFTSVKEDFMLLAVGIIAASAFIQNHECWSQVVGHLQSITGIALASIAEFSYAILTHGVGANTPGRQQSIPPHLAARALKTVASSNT
The assay is described as follows: ProtoArray, GST-treated control array.
Experimental: as §1, §2, §3

For assay [10], the target named is T5, PTCD2-pentatricopeptide repeat domain 2 (PTCD2) (human, UniProt Q8WV60 1-388, limits assumed).
T5 sequence (looked up): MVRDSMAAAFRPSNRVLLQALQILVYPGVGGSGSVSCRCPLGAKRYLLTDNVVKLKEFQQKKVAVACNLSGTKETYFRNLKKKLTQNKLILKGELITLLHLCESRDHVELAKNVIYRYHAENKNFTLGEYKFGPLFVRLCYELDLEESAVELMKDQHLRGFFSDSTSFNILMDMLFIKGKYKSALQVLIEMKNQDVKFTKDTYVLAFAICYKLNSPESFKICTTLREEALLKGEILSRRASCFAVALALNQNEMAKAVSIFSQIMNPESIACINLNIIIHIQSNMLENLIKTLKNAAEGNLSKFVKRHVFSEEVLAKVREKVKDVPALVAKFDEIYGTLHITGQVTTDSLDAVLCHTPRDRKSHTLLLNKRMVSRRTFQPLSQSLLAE
The experiment in a line: ProtoArray, GST-treated control array.
Experimental: as §1, §2, §3

For assay [11], the target named is T6, C11orf73-chromosome 11 open reading frame 73 (C11orf73) (human, UniProt Q53FT3 1-197).
T6 sequence (looked up): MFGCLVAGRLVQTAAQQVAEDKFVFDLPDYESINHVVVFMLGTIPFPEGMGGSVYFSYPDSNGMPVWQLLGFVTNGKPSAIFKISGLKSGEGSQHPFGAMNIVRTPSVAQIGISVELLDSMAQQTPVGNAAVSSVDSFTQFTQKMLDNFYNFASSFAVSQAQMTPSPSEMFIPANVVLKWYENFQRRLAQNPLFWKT
The experiment in a line: ProtoArray, GST-treated control array.
Experimental: as §1, §2, §3

Sequence of CA13-carbonic anhydrase XIII (CA13) (Q8N1Q1 whole entry, the tested form may be a part): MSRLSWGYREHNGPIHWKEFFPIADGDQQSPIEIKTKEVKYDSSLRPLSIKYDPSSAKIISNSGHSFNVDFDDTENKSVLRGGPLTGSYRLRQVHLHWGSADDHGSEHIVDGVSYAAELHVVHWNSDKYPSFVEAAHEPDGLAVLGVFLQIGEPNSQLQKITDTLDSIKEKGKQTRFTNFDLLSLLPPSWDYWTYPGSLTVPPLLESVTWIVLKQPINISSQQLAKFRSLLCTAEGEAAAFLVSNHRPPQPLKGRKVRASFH

B1: 3× Flag-3×MBT (designed binder)
chain: EEWSSSQPATGEKKECWSWESYLEEQKAITAPVSLFQDSQAVTHNKNGFKLGMKLEGIDPQHPSMYFILTVAEVCGYRLRLHFDGYSECHDFWVNANSPDIHPAGWFEKTGHKLQPPKGYKEEEFSWSQYLRSTRAQAAPKHLFVSQSHSPPPLGFQVGMKLEAVDRMNPSLVCVASVTDVVDSRFLVHFDNWDDTYDYWCDPSSPYIHPVGWCQKQGKPLTPPQDYPDPDNFCWEKYLEETGASAVPTWAFKVRPPHSFLVNMKLEAVDRRNPALIRVASVEDVEDHRIKIHFDGWSHGYDFWIDADHPDIHPAGWCSKTGHPLQPPLGPREPSSASPGG
notes: also called Flag-tagged 3×MBT; 3xFlag-3xMBT; not shown: made by PreScission cleavage of GST-3× Flag-3×MBT
For the molecule B1, the G9a-GST in assay [1] came to 17.8; in assay [2], 29.1; in [3], 13.8; in assay [4], 21.7. Also, the “GST Average SNR” value was 0.728 in assay [5]; -0.43 in [6]; 1.24 in [7]; 1.16 in assay [8]; 0.567 in assay [9]; 0.679 in [10]. For the same molecule, in assay [11], the “GST Average SNR” value is -1.4.

For the origin of these results see US20140274782A1 (Stanford University, published 2014).
